Measurements as given in publication PMC10967632, “Anti-CD99 Antibody Therapy Triggers Macrophage-Dependent Ewing Cell Death In Vitro and Myeloid Cell Recruitment In Vivo” (Antibodies, 2024).

B1: NOA3, anti-CD99 monoclonal antibody (IgG1) (antibody, V domains shown)
VH: EVQLVQSGAEVKKPGESLKIACKGSGYSFSKYWIGWVRQMPGKGLEWMGIIYPGDSDTRYSPSFQGQVTISVDTSISTAYLQWSSLKASDTAIYYCARHLRNFGDAFDIWGQGTTVTVSS
VL: SYELTQPPSVSVSPGQTARITCSGDALPKQYAYWYQQKPGQSPVLVIYQDSKRPSGIPERFSGSNSGNTATLTISGTQAMDEADYYCQAWDSSTAFGGGTKLTVL
notes: constant region IgG1; IgG1; isolated by phage display
B2: soluble human CD99 (coated on the ELISA plate) (natural protein, UniProt P14209 23-122, looked up)
chain: DGGFDLSDALPDNENKKPTAIPKKPSAGDDFDLGDAVVDGENDDPRPPNPPKPMPNPNPNHPSSSGSFSDADLADGVSGGEGKGGSDGGGSHRKEGEEAD
notes: human CD99, soluble; May be the same CD99-Fc (G&P Biosciences) as m6

Columns and labels:
[1] = biological target: T1, CD99 (or MIC2), 32 kDa type I membrane glycoprotein, on cells (Homo sapiens, UniProt P14209); test: flow cytometry on cells; Ewing sarcoma cells incubated with anti-CD99 IgG1 (2 µg/mL; NOA1 10 µg/mL; NOA2 also titrated) for one hour at 4 °C, then FITC-conjugated mouse anti-human IgG; CD99-negative Kelly neuroblastoma cells as negative control; conditions: one partner purified
T1 construct: CD99 (MIC2), human, endogenous on the cell surface; also called Ewing CD99; macrophage CD99; source: endogenous, on human Ewing sarcoma cell lines (A673, TC32, CADO-ES1, TC71, TTC466); endogenous, on monocytes derived from human PBMCs

[2] = biological target: T2, Human His-tagged PILRα, extracellular domain (human, UniProt Q9UKJ1 20-197); test: ELISA; plate coated with 2 µg/mL human CD99, PILRα at 0.25 to 5 µg/mL, detected with an anti-PILRα antibody and HRP-bound secondary; conditions: both partners purified
T2 construct: PILRα, human, extracellular domain; Band at 55 kDa on SDS-PAGE; also called human PILRα; source: Expi293F, transfected (pcDNA3.4), purified from the supernatant (HisPur Ni-NTA column)
T2 sequence (Q9UKJ1 20-197): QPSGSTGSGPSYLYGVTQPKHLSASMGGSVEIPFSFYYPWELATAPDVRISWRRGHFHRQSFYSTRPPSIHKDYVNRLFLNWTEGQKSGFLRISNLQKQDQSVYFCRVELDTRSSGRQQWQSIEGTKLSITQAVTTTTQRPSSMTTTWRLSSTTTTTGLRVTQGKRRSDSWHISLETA

Binder | binding result [1] | binding result [2]
B1 | binds | –
B2 | – | binds
